Laboratory results reported in publication PMC4722456.

target: actin from chicken skeletal muscle (filamentous) (chicken) (UniProt P68139)

Km for actin of the actin-activated Mg2+-ATPase (Michaelis-Menten fit) [µM] | Substance
4.99 | Drosophila melanogaster indirect flight muscle myosin subfragment 1, converter mutant R759E (domain or fragment)
3.58 | Drosophila melanogaster indirect flight muscle myosin subfragment 1, double mutant R759E/N509K (domain or fragment)
5.77 | Drosophila melanogaster indirect flight muscle myosin subfragment 1, wild type (domain or fragment)
